B1: Hairpin Ribozyme (parent)
chain: GUCCUCUUUCACGUGCGCGUGAAAGAGAGAAGUGAACCAGAGAAACACACGUUGUGGUAUAUUACCUGGUA

Variants of: B1
Experiment: self-cleavage, relative activity (ratio to wild type); higher = more cleavage; co-transcriptional

Compared with C38A U63A, C38A U63G is higher in self-cleavage: 0.0537 for the first, 0.165 for the second.

Compared with C38G A41U, C38G A43U is lower in self-cleavage: 0.358 for the first, 0.154 for the second.

First: C38G A44C
Second: C38G A44G
The self-cleavage of the first is lower: 0.17 for the first, 0.335 for the second.

Compared with C38G A45C, C38G A45G is higher in self-cleavage: 0.0432 for the first, 0.259 for the second.

Compared with C38G A47U, C38G A49C is lower in self-cleavage: 0.171 for the first, 0.106 for the second.

Going from C38G A49G to C38G A59G, the self-cleavage rises from 0.0605 to 0.162.

First: C38G A59U
Second: C38G A64U
The self-cleavage of the first is higher: 0.125 for the first, 0.112 for the second.

Going from C38G C46A to C38G C46U, the self-cleavage falls from 0.148 to 0.116.

Compared with C38G C48A, C38G C50A is lower in self-cleavage: 0.202 for the first, 0.162 for the second.

First: C38G C50G
Second: C38G C65A
The self-cleavage of the first is lower: 0.0871 for the first, 0.145 for the second.

Compared with C38G G40A, C38G G40U is higher in self-cleavage: 0.148 for the first, 0.169 for the second.

Compared with C38G G42C, C38G G54C is lower in self-cleavage: 0.134 for the first, 0.12 for the second.

First: C38G G54U
Second: C38G G56C
The self-cleavage of the first is higher: 0.0948 for the first, 0.0901 for the second.

First: C38G G57C
Second: C38G G68U
The self-cleavage of the first is lower: 0.103 for the first, 0.514 for the second.

First: C38G G69A
Second: C38G G69C
The self-cleavage of the first is lower: 0.196 for the first, 0.241 for the second.

Compared with C38G G69U, C38G U53C is higher in self-cleavage: 0.155 for the first, 0.196 for the second.

First: C38G U53G
Second: C38G U55A
The self-cleavage of the first is lower: 0.206 for the first, 0.288 for the second.

Going from C38G U55G to C38G U58A, the self-cleavage falls from 0.193 to 0.139.

Going from C38G U58C to C38G U58G, the self-cleavage falls from 0.185 to 0.175.

First: C38G U60G
Second: C38G U62C
The self-cleavage of the first is lower: 0.146 for the first, 0.236 for the second.

Compared with C38G U63A, C38G U63G is higher in self-cleavage: 0.117 for the first, 0.231 for the second.

Going from C38G U67C to C38G U70G, the self-cleavage rises from 0.119 to 0.216.

First: C38U A41C
Second: C38U A41G
The self-cleavage of the first is lower: 0.619 for the first, 0.648 for the second.

Compared with C38U A41U, C38U A43G is lower in self-cleavage: 0.742 for the first, 0.0885 for the second.

Going from C38U A43U to C38U A44C, the self-cleavage falls from 0.153 to 0.0457.

Going from C38U A44U to C38U A45C, the self-cleavage falls from 0.135 to 0.108.

Compared with C38U A45G, C38U A49C is higher in self-cleavage: 0.197 for the first, 0.245 for the second.

Going from C38U A59U to C38U A64U, the self-cleavage rises from 0.228 to 0.301.

Compared with C38U A71C, C38U A71U is lower in self-cleavage: 0.889 for the first, 0.401 for the second.

First: C38U C46A
Second: C38U C50G
The self-cleavage of the first is higher: 0.182 for the first, 0.0694 for the second.

First: C38U C65A
Second: C38U C66A
The self-cleavage of the first is higher: 0.453 for the first, 0.167 for the second.

Going from C38U C66U to C38U G40U, the self-cleavage falls from 0.192 to 0.101.

Compared with C38U G42A, C38U G51C is higher in self-cleavage: 0.132 for the first, 0.583 for the second.

First: C38U G54C
Second: C38U G54U
The self-cleavage of the first is lower: 0.235 for the first, 0.336 for the second.

First: C38U G56A
Second: C38U G56U
The self-cleavage of the first is lower: 0.106 for the first, 0.14 for the second.

First: C38U G57A
Second: C38U G69A
The self-cleavage of the first is higher: 0.229 for the first, 0.138 for the second.

First: C38U U55C
Second: C38U U58C
The self-cleavage of the first is lower: 0.231 for the first, 0.544 for the second.

Compared with C38U U60A, C38U U60C is higher in self-cleavage: 0.428 for the first, 0.759 for the second.

Going from C38U U62A to C38U U62C, the self-cleavage rises from 0.128 to 0.273.

Compared with C38U U63A, C38U U67A is lower in self-cleavage: 0.141 for the first, 0.119 for the second.

Compared with C38U U70C, A39C A41G is higher in self-cleavage: 0.268 for the first, 0.591 for the second.

Compared with A39C A44G, A39C A45C is higher in self-cleavage: 0.0893 for the first, 0.174 for the second.

Compared with A39C A45U, A39C A47C is lower in self-cleavage: 0.231 for the first, 0.207 for the second.

Compared with A39C A49C, A39C A49U is lower in self-cleavage: 0.151 for the first, 0.12 for the second.

Going from A39C A61U to A39C C48U, the self-cleavage rises from 0.125 to 0.145.

First: A39C C50U
Second: A39C C66G
The self-cleavage of the first is higher: 0.156 for the first, 0.0809 for the second.

Going from A39C C66U to A39C G42U, the self-cleavage falls from 0.306 to 0.11.

Compared with A39C G51C, A39C G54A is lower in self-cleavage: 0.324 for the first, 0.121 for the second.

First: A39C G56C
Second: A39C G56U
The self-cleavage of the first is higher: 0.144 for the first, 0.134 for the second.

Going from A39C G69C to A39C G69U, the self-cleavage falls from 0.188 to 0.147.

Compared with A39C U52C, A39C U53A is lower in self-cleavage: 0.56 for the first, 0.549 for the second.

Compared with A39C U55A, A39C U62C is higher in self-cleavage: 0.148 for the first, 0.161 for the second.

Compared with A39C U63A, A39C U67A is higher in self-cleavage: 0.17 for the first, 0.272 for the second.

Going from A39G A41G to A39G A41U, the self-cleavage falls from 0.619 to 0.474.

Going from A39G A43U to A39G A44C, the self-cleavage falls from 0.141 to 0.0747.

First: A39G A45G
Second: A39G A47G
The self-cleavage of the first is lower: 0.0935 for the first, 0.116 for the second.

Compared with A39G A47U, A39G A49G is lower in self-cleavage: 0.134 for the first, 0.116 for the second.

Compared with A39G A59U, A39G A61C is lower in self-cleavage: 0.153 for the first, 0.139 for the second.

Going from A39G A61G to A39G A71C, the self-cleavage rises from 0.123 to 0.303.

First: A39G A71U
Second: A39G C48A
The self-cleavage of the first is higher: 0.176 for the first, 0.0878 for the second.

First: A39G C65U
Second: A39G C66G
The self-cleavage of the first is higher: 0.263 for the first, 0.0926 for the second.

Going from A39G G40A to A39G G42A, the self-cleavage rises from 0.102 to 0.114.

Going from A39G G54U to A39G G56A, the self-cleavage falls from 0.163 to 0.147.

First: A39G G56U
Second: A39G G68A
The self-cleavage of the first is higher: 0.0978 for the first, 0.0973 for the second.

Compared with A39G G68C, A39G G69U is higher in self-cleavage: 0.103 for the first, 0.122 for the second.

Going from A39G U55C to A39G U55G, the self-cleavage rises from 0.119 to 0.12.

Compared with A39G U58C, A39G U60C is higher in self-cleavage: 0.272 for the first, 0.424 for the second.

First: A39G U62G
Second: A39G U63A
The self-cleavage of the first is lower: 0.074 for the first, 0.111 for the second.

First: A39G U67A
Second: A39U A41G
The self-cleavage of the first is lower: 0.126 for the first, 0.644 for the second.

Going from A39U A43C to A39U A45C, the self-cleavage falls from 0.129 to 0.123.

First: A39U A45G
Second: A39U A47G
The self-cleavage of the first is higher: 0.252 for the first, 0.158 for the second.

Compared with A39U A49C, A39U A49U is lower in self-cleavage: 0.145 for the first, 0.0838 for the second.

First: A39U A61C
Second: A39U A71C
The self-cleavage of the first is lower: 0.187 for the first, 0.694 for the second.

Compared with A39U C46A, A39U C46U is lower in self-cleavage: 0.166 for the first, 0.114 for the second.

Going from A39U C50A to A39U C50G, the self-cleavage falls from 0.139 to 0.0689.

First: A39U C50U
Second: A39U C66A
The self-cleavage of the first is higher: 0.204 for the first, 0.121 for the second.

Going from A39U C66G to A39U G42U, the self-cleavage rises from 0.135 to 0.172.

Going from A39U G51U to A39U G54C, the self-cleavage falls from 0.632 to 0.0503.

Compared with A39U G56A, A39U G57A is higher in self-cleavage: 0.114 for the first, 0.155 for the second.

Going from A39U G57C to A39U G57U, the self-cleavage falls from 0.134 to 0.123.

First: A39U G69A
Second: A39U G69C
The self-cleavage of the first is higher: 0.157 for the first, 0.073 for the second.

Compared with A39U G69U, A39U U52C is higher in self-cleavage: 0.151 for the first, 0.378 for the second.

Going from A39U U53A to A39U U55A, the self-cleavage falls from 0.233 to 0.155.

A39U U60A gave a self-cleavage of 0.345.
